# Data from publication PMC9468113.
# pKd: −log10 of the molar value.
# Target: MST-Red-labeled human MIF (human) (UniProt P14174)
# Assay: MST; Monolith NT.115, 25 °C; MST-Red-MIF at fixed concentration (312 nM with CXCL4L1, 456 nM with CXCL4) with serial dilutions of the chemokine; 10 mM Tris-HCl, pH 8.0, 0.01% BSA; both in solution
# Sequence of MST-Red-labeled human MIF (human) (P14174 2-115): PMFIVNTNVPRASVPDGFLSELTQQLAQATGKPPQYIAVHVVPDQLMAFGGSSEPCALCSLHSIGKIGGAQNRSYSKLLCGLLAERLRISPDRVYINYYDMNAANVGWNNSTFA
substance,measurement,value
"recombinant human CXCL4 (PF4), Peprotech (from UniProt P02776 32-101) (natural protein)",pKd,5.70
